From the supplement of paper PMC10567573

B1: RHOBTB3 (parent)
chain: DSCCPAGIFQAMCLLICAEMYQVS
B2: RPS21 (parent)
chain: AEVSWEPGRREGCDICAGKAGCPI

Variants of: B1
Experiment: protein stability index of a GFP-peptide fusion (GPS, HEK-293T) (PSI 1-6); higher = more stable
Conditions: c terminus: a fixed tail appended
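Also: lentivirally expressed fusions sorted by FACS into six bins by GFP to DsRed ratio, PSI derived from sequencing read proportions per bin multiplied by bin number.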

Variant | protein stability index
E19A | 2.92
Q10N | 2.37
G7E | 1.72
G7F | 2.49
Y21G | 3.18
P5H | 3.17
L14E | 3.59
C3R | 2.33
C3K | 3.1
S2L | 2.17
S2I | 3.54
S2T | 3.94
A11Y | 3.96
A11C | 2.69
L15I | 3.1
C17M | 5.55
A6P | 2.76
C13W | 3.35
C13I | 4.59
S24M | 1.94
S24P | 4.65
S24K | 3.25
F9E | 4.01
Q22Y | 2.33
Q22P | 2.12
I16L | 2.92

Variants of: B2
Experiment: as above
Conditions: c terminus: a fixed tail appended

Variant | protein stability index
G12V | 2.63
G12T | 3.67
G12C | 3.29
G12M | 4.41
G12Q | 2.45
G12K | 2.5
G12I | 2.52
G12N | 3.07
G12D | 4.16
G12W | 4.38
G12E | 3.86
G12P | 3.21
G18F | 2.75
G18A | 3.08
G18K | 2.7
G18C | 2.79
G18W | 2.74
G18H | 2.97
G18I | 2.24
G18Y | 2.66
G18N | 3.63
G18P | 3.47
G18T | 3.28
G18D | 4.25

Variant | protein stability index
G18S | 3.63
G18M | 3.06
A20N | 3.26
A20Y | 2.96
A20P | 3.34
A20L | 2.48
A20I | 2.53
A20V | 2.59
A20R | 2.26
A20F | 3.1
A20T | 3.75
A20H | 3.25
A20C | 4.67
A20K | 1.5
A20E | 2.36
A20S | 3.69
V3T | 3.66
V3A | 4.16
V3K | 4
V3G | 4
V3D | 4
V3P | 3.87
V3W | 3.27
V3F | 2.68

Variant | protein stability index
V3E | 4.58
V3I | 2.23
V3R | 3.01
V3C | 3.78
V3H | 4.16
V3M | 1.9
V3S | 3.34
V3Y | 3.54
I15S | 4.14
I15L | 2.43
I15C | 4.43
I15V | 3.53
I15W | 3.74
I15Y | 3.21
I15M | 3.42
I15Q | 3.46
I15F | 2.08
I15G | 4.06
I15H | 4.36
I15R | 2.96
I15E | 4.25
I15T | 3.83
E11C | 3.22
E11L | 2.46

Variant | protein stability index
E11T | 2.87
E11P | 2.92
E11H | 3.53
E11W | 2.13
E11K | 2.6
E11N | 2.55
E11F | 4.96
E11A | 1.95
E11Y | 2.69
E11D | 3.37
E11S | 2.96
E11I | 2.56
E11G | 1.99
C22K | 2.99
C22R | 2.32
C22D | 3.66
C22F | 2.28
C22P | 3.34
C22Y | 2.2
C22M | 3.11
C22N | 2.96
C22W | 2.82
C22H | 2.9
C22E | 3.88

Variant | protein stability index
D14H | 2.5
D14K | 3.66
D14V | 3.22
D14N | 2.35
D14A | 2.13
D14M | 2.18
D14I | 3.65
C16K | 3.86
C16V | 3.67
C16R | 4.22
C16L | 4
C16T | 2.97
C16I | 3.69
C16F | 3.58
C16W | 1.6
C16Y | 3.04
C16D | 3.44
I24C | 5.83
I24Y | 2.54
I24E | 4.76
I24H | 5.43
I24S | 3.79
I24G | 3.41
I24V | 3.19

Variant | protein stability index
I24A | 4.48
I24T | 3.96
G8W | 2.01
G8Q | 3.99
G8F | 2.46
G8I | 2.78
G8T | 2.72
G8K | 3.03
G8P | 3.24
G8R | 2.77
G8N | 3.41
G8Y | 1.74
G8M | 2.59
G8H | 2.54
G21S | 2.59
G21P | 3.35
G21C | 2.84
G21M | 3.01
G21R | 2.75
G21L | 3.38
G21F | 2.13
G21Y | 3.56
G21A | 3.26
G21I | 2.67

Variant | protein stability index
G21D | 3.59
G21N | 2.82
G21Q | 4.18
A17G | 3.38
A17M | 2.29
A17H | 3.66
A17F | 2.3
A17V | 3.14
A17Y | 3.57
A17R | 2.97
A17N | 3.45
A17L | 2.01
A17I | 2.59
A17T | 3.58
A17P | 3.72
A17C | 3.11
A17E | 3.78
A17S | 2.46
E2F | 1.23
E2N | 3.51
E2T | 2.84
E2M | 2.83
E2Y | 2.68
E2S | 2.94

Variant | protein stability index
E2L | 3.09
E2K | 1.92
E2G | 3.38
E2Q | 2.36
E2R | 1.99
E2H | 2.02
E2C | 2.91
E6C | 2.23
E6G | 2.36
E6R | 3.04
E6H | 5.82
E6I | 2
E6W | 1.56
E6Y | 1.76
E6F | 2.14
E6Q | 2.78
E6P | 3
E6V | 2.66
E6T | 2.79
E6N | 3.49
A1Y | 2.76
A1S | 2.71
A1C | 2.9
A1V | 1.36

Variant | protein stability index
A1F | 1.94
A1K | 2.67
A1D | 3.94
A1E | 3.49
A1M | 3.37
A1G | 3.57
A1H | 2.65
A1P | 3.8
A1R | 3.51
P7H | 3.92
P7F | 2.21
P7S | 2.77
P7Q | 2.6
P7I | 2.97
P7V | 2.23
P7R | 2.53
P7Y | 2.9
P7E | 4
P7C | 2.69
S4K | 3.77
S4F | 2.45
S4Y | 2.92
S4W | 2.79
S4G | 3.64

Variant | protein stability index
S4L | 3.81
S4E | 4.2
S4V | 3.23
S4N | 4.34
S4C | 3.24
S4M | 1.58
S4T | 2.54
S4D | 3.41
S4A | 4.39
K19T | 2.62
K19Y | 2.24
K19F | 2.15
K19N | 2
K19W | 1.28
K19D | 4.29
K19Q | 2.97
K19I | 3.79
K19L | 2.3
K19G | 3.99
K19H | 2.13
K19M | 2.48
K19E | 4.29
R9I | 3.14
R9Q | 3.75

Variant | protein stability index
R9N | 3.35
R9F | 3.89
R9P | 3.26
R9A | 3.95
R9W | 2.67
R9T | 3.67
R9D | 4.04
R9Y | 3.1
R9M | 3.02
R9L | 3.49
C13G | 3.88
C13T | 4.38
C13R | 4.04
C13E | 4.21
C13Y | 3.84
C13H | 4.27
C13A | 2.49
C13M | 4.01
C13V | 5.29
C13F | 3.97
C13D | 4.06
R10Y | 4.13
R10V | 2.69
R10Q | 3.09

Variant | protein stability index
R10H | 4.11
R10N | 3.47
R10E | 2.81
R10F | 2.46
R10K | 3.32
R10G | 2.52
R10L | 2.84
R10C | 3.8
R10T | 3.2
R10P | 1.9
R10A | 3.49
R10I | 2.91
R10S | 3.14
W5K | 4.84
W5Q | 4.19
W5I | 3.7
W5Y | 2.91
W5T | 4.04
W5F | 3.53
W5M | 3.06
W5D | 4.85
W5S | 4.06
W5V | 4.44
W5C | 4.24

Variant | protein stability index
W5L | 3.12
W5P | 5.67
W5R | 3.04
W5E | 4.64
P23A | 2.32
P23F | 2.04
P23L | 2.92
P23M | 1.48
P23G | 3.82
P23E | 3.1
P23T | 2.27
P23W | 1.8
P23N | 2.62
P23H | 2.61
P23V | 2.18
P23D | 3.85
P23Y | 1.73
P23I | 3.05
P23K | 3.04
P23Q | 2.68
